Measurements taken from the supplement of paper PMC9233669.
This sample holds only a part of the variants without activity.

Columns and labels:
biotinyl-Phe-oxazolone = test: self-aminoacylation, catalytic enhancement (BFO) (fold over background); higher = more active; k-Seq, kA / k0A0; sequences stand for … in GGGAAUGGAUCCACAUCUACGAAUUC…UUCACUGCAGACUUGACGAAGCUG
Outline: (§1)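 Working in 50 μL HEPES/NaCl/KCl/MgCl2/CaCl2 buffer with 5% acetonitrile at pH 6.9–7.0, mutagenized RNA pools (0.43 μM; 21-nt variable region) were reacted with 2–1250 μM of each biotinyl-aminoacyl-oxazolone for 90 minutes at room temperature. Streptavidin capture followed, with quantification by triplicate qPCR and Illumina sequencing. Catalytic enhancement is reported as median kA over the uncatalyzed rate, the low-activity peak of a bimodal Gaussian fit to the data.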

biotinyl-Ile-oxazolone = test: self-aminoacylation, catalytic enhancement (BIO) (fold over background); higher = more active; k-Seq, kA / k0A0; sequences stand for … in GGGAAUGGAUCCACAUCUACGAAUUC…UUCACUGCAGACUUGACGAAGCUG
Outline: as §1

biotinyl-Met-oxazolone = test: self-aminoacylation, catalytic enhancement (BMO) (fold over background); higher = more active; k-Seq, kA / k0A0; sequences stand for … in GGGAAUGGAUCCACAUCUACGAAUUC…UUCACUGCAGACUUGACGAAGCUG
Outline: as §1

biotinyl-Val-oxazolone = test: self-aminoacylation, catalytic enhancement (BVO) (fold over background); higher = more active; k-Seq, kA / k0A0; sequences stand for … in GGGAAUGGAUCCACAUCUACGAAUUC…UUCACUGCAGACUUGACGAAGCUG
Outline: as §1

biotinyl-Leu-oxazolone = test: self-aminoacylation, catalytic enhancement (BLO) (fold over background); higher = more active; k-Seq, kA / k0A0; sequences stand for … in GGGAAUGGAUCCACAUCUACGAAUUC…UUCACUGCAGACUUGACGAAGCUG
Outline: as §1

biotinyl-Trp-oxazolone = test: self-aminoacylation, catalytic enhancement (BWO) (fold over background); higher = more active; k-Seq, kA / k0A0; sequences stand for … in GGGAAUGGAUCCACAUCUACGAAUUC…UUCACUGCAGACUUGACGAAGCUG
Outline: as §1

Row | Sequence | self-aminoacylation (biotinyl-Phe-oxazolone) | self-aminoacylation (biotinyl-Ile-oxazolone) | self-aminoacylation (biotinyl-Met-oxazolone) | self-aminoacylation (biotinyl-Val-oxazolone) | self-aminoacylation (biotinyl-Leu-oxazolone) | self-aminoacylation (biotinyl-Trp-oxazolone)
1 | AAGUUUGCCAAUAGUUGCAAG [Fam3.1 aminoacylation ribozyme variant] | 1.39 | 0.948 | 0.895 | 0.866 | 0.958 | 0.808
2 | AAGUUUGCCAAUAUUCGCAAG [Fam3.1 aminoacylation ribozyme variant] | 3.77 | 1.51 | 1.35 | 1.07 | 1.07 | 1.45
3 | AAGUUUGCCACUAGUCGCAAG [Fam3.1 aminoacylation ribozyme variant] | 0.709 | 0.918 | 0.991 | 1.15 | 0.973 | 0.807
4 | AAGUUUGCCUAUAGUCGCAAG [Fam3.1 aminoacylation ribozyme variant] | 0.956 | 0.844 | 0.706 | 0.981 | 0.718 | 0.784
5 | AAGUUUGCGAAUAGUCGAAAG [Fam3.1 aminoacylation ribozyme variant] | 0.796 | 1.05 | 1.17 | 0.733 | 1.11 | 0.83
6 | AAGUUUGCGAAUAGUCGCAUG [Fam3.1 aminoacylation ribozyme variant] | 1.13 | 1.1 | 1.04 | 1.08 | 1.23 | 1
7 | AAGUUUGCUAAAAGUCGUAAG [Fam3.1 aminoacylation ribozyme variant] | 25.8 | 1.12 | 1.28 | 0.971 | 0.982 | 6.5
8 | AAGUUUGCUAAAGGUCGCAAG [Fam3.1 aminoacylation ribozyme variant] | 1.14 | 0.687 | 0.931 | 0.625 | 0.716 | 0.835
9 | AAGUUUGCUAACCGUCGCAAG [Fam3.1 aminoacylation ribozyme variant] | 0.981 | 0.714 | 0.567 | 0.754 | 0.755 | 0.488
10 | AAGUUUGCUAAGAGUCGAAAG [Fam3.1 aminoacylation ribozyme variant] | 1.3 | 0.804 | 0.817 | 0.785 | 0.602 | 0.757
11 | AAGUUUGCUAAGAGUCGCAAU [Fam3.1 aminoacylation ribozyme variant] | 1.24 | 1.42 | 0.797 | 1.01 | 1.05 | 1.74
12 | AAGUUUGCUAAGAGUCGCAUG [Fam3.1 aminoacylation ribozyme variant] | 1.82 | 0.902 | 1.07 | 1.1 | 1.03 | 1.69
13 | AAGUUUGCUAAGAGUGGCAAG [Fam3.1 aminoacylation ribozyme variant] | 0.543 | 0.861 | 0.955 | 1.11 | 0.724 | 0.872
14 | AAGUUUGCUAAGUGUCGCAAG [Fam3.1 aminoacylation ribozyme variant] | 1.9 | 0.902 | 0.887 | 0.897 | 0.786 | 0.987
15 | AAGUUUGCUAAUAAACGCAAG [Fam3.1 aminoacylation ribozyme variant] | 1.12 | 0.774 | 0.833 | 0.667 | 0.687 | 0.97
16 | AAGUUUGCUAAUAAUCGCAAC [Fam3.1 aminoacylation ribozyme variant] | 0.842 | 0.8 | 1.06 | 0.975 | 0.773 | 1.18
17 | AAGUUUGCUAAUAAUGGCAAG [Fam3.1 aminoacylation ribozyme variant] | 0.786 | 0.644 | 0.599 | 0.727 | 0.479 | 0.585
18 | AAGUUUGCUAAUACCCGCAAG [Fam3.1 aminoacylation ribozyme variant] | 0.631 | 0.909 | 0.577 | 0.838 | 0.783 | 1.45
19 | AAGUUUGCUAAUAGACGCAUG [Fam3.1 aminoacylation ribozyme variant] | 0.785 | 0.645 | 0.48 | 0.59 | 0.553 | 0.703
20 | AAGUUUGCUAAUAGCCGCAAA [Fam3.1 aminoacylation ribozyme variant] | 1.38 | 1.92 | 1.86 | 1.58 | 1.38 | 1.3
21 | AAGUUUGCUAAUAGCCGCCAG [Fam3.1 aminoacylation ribozyme variant] | 0.63 | 1.52 | 1.1 | 1.45 | 1.03 | 1.21
22 | AAGUUUGCUAAUAGGCGCAGG [Fam3.1 aminoacylation ribozyme variant] | 0.997 | 0.831 | 0.67 | 0.965 | 0.907 | 1.18

Row | Sequence | self-aminoacylation (biotinyl-Phe-oxazolone) | self-aminoacylation (biotinyl-Ile-oxazolone) | self-aminoacylation (biotinyl-Met-oxazolone) | self-aminoacylation (biotinyl-Val-oxazolone) | self-aminoacylation (biotinyl-Leu-oxazolone) | self-aminoacylation (biotinyl-Trp-oxazolone)
23 | AAGUUUGCUAAUAGGCGUAAG [Fam3.1 aminoacylation ribozyme variant] | 0.828 | 0.669 | 0.735 | 0.735 | 0.66 | 0.664
24 | AAGUUUGCUAAUAGUAACAAG [Fam3.1 aminoacylation ribozyme variant] | 1.58 | 1.19 | 1.52 | 1.1 | 1.12 | 1.41
25 | AAGUUUGCUAAUAGUAGCAAC [Fam3.1 aminoacylation ribozyme variant] | 1.08 | 1.09 | 0.942 | 1.15 | 0.631 | 0.859
26 | AAGUUUGCUAAUAGUAGCAAU [Fam3.1 aminoacylation ribozyme variant] | 1.15 | 1.32 | 1.57 | 1.32 | 1.11 | 1.78
27 | AAGUUUGCUAAUAGUCAUAAG [Fam3.1 aminoacylation ribozyme variant] | 17.9 | 1.44 | 1.27 | 1.25 | 1.15 | 5.59
28 | AAGUUUGCUAAUAGUCCCAAC [Fam3.1 aminoacylation ribozyme variant] | 1.04 | 0.639 | 0.505 | 0.643 | 0.585 | 0.629
29 | AAGUUUGCUAAUAGUCCCAAU [Fam3.1 aminoacylation ribozyme variant] | 1.36 | 1.3 | 0.987 | 0.912 | 1 | 1.28
30 | AAGUUUGCUAAUAGUCGAUAG [Fam3.1 aminoacylation ribozyme variant] | 1.42 | 0.824 | 0.781 | 0.846 | 0.805 | 0.829
31 | AAGUUUGCUAAUAGUCGCAAC [Fam3.1 aminoacylation ribozyme variant] | 1.28 | 0.972 | 0.904 | 0.935 | 0.816 | 1.06
32 | AAGUUUGCUAAUAGUCGCAGU [Fam3.1 aminoacylation ribozyme variant] | 8.27 | 1.33 | 1.91 | 1.34 | 1.66 | 3.14
33 | AAGUUUGCUAAUAGUCGCAUC [Fam3.1 aminoacylation ribozyme variant] | 1.53 | 0.778 | 0.649 | 0.706 | 0.61 | 0.681
34 | AAGUUUGCUAAUAGUCGCAUG [Fam3.1 aminoacylation ribozyme variant] | 1.47 | 1.03 | 0.93 | 0.916 | 0.932 | 0.976
35 | AAGUUUGCUAAUAGUCGCGAG [Fam3.1 aminoacylation ribozyme variant] | 2.01 | 1.33 | 1.33 | 1.2 | 1.29 | 2
36 | AAGUUUGCUAAUAGUCGCUAU [Fam3.1 aminoacylation ribozyme variant] | 1.39 | 1.31 | 1.26 | 0.984 | 1.06 | 1.08
37 | AAGUUUGCUAAUAGUCGGAAU [Fam3.1 aminoacylation ribozyme variant] | 1.54 | 1.37 | 1.5 | 1.41 | 1.41 | 1.18
38 | AAGUUUGCUAAUAGUCGUAAG [Fam3.1 aminoacylation ribozyme variant] | 33 | 1.19 | 1.34 | 1.05 | 0.914 | 8.22
39 | AAGUUUGCUAAUAGUCGUAAU [Fam3.1 aminoacylation ribozyme variant] | 1.24 | 1.19 | 1.19 | 1.23 | 1.07 | 1.13
40 | AAGUUUGCUAAUAGUGGCACG [Fam3.1 aminoacylation ribozyme variant] | 0.682 | 0.684 | 0.636 | 0.689 | 0.622 | 0.733
41 | AAGUUUGCUAAUCGCCGCAAG [Fam3.1 aminoacylation ribozyme variant] | 2.82 | 1.97 | 1.56 | 1.47 | 1.54 | 4.38
42 | AAGUUUGCUAAUCGUCGGAAG [Fam3.1 aminoacylation ribozyme variant] | 1.64 | 0.972 | 0.704 | 0.869 | 0.799 | 1.42
43 | AAGUUUGCUAAUCUUCGCAAG [Fam3.1 aminoacylation ribozyme variant] | 0.816 | 1.11 | 1.07 | 1.07 | 0.95 | 1.19
